Assay results published in article PMC6721692.

How the values were obtained:
[1] = biological target: endogenous TrkB of cultured rat hippocampal neurons (rat (endogenous in hippocampal neurons)) (UniProt Q63604); experiment: non-reducing SDS-PAGE and Western blot; lysates of rat hippocampal neurons (vehicle or BDNF 1.0 nM) with SDS, without β-ME; blots with 80E3 and MM12
[2] = biological target: endogenous TrkB of cultured rat hippocampal neurons (rat (endogenous in hippocampal neurons)) (UniProt Q63604); experiment: native gel or EMSA; native PAGE (no SDS, no β-ME) of lysates of rat hippocampal neurons treated with vehicle or BDNF (1.0 nM, 15 min); Western blot with anti-TrkB antibodies (80E3, MM12)

endogenous TrkB of cultured rat hippocampal neurons, Q63604 32-821 (receptor; other documents disagree on this pair), sequence (Q63604 32-821): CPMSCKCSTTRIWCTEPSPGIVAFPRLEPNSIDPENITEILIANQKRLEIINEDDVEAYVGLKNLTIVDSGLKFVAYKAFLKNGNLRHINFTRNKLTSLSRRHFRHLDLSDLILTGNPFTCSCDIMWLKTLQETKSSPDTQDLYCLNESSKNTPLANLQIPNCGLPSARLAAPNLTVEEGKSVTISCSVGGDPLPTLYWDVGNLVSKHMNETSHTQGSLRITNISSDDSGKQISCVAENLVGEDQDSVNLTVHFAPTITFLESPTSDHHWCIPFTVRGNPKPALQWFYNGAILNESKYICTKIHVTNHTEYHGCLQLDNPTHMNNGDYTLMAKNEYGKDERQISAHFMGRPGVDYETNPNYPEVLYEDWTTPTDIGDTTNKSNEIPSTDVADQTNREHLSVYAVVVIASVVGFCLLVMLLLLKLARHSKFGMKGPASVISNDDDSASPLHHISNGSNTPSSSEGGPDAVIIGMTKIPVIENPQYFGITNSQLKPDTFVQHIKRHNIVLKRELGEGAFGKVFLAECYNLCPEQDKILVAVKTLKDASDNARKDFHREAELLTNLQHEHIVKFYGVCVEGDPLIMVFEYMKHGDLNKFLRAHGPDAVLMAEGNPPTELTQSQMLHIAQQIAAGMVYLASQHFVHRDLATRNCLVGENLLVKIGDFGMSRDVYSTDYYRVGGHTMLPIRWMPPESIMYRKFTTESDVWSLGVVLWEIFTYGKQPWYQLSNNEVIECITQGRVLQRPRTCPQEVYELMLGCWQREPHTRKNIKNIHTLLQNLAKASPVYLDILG

endogenous TrkB of cultured rat hippocampal neurons, Q63604 32-821 (receptor; other documents disagree on this pair)
stoichiometry N [1]: 2
stoichiometry N [2]: 2
